{"source": "paper doi:10.1101/2024.09.20.612365", "about": "“Preventing Inappropriate Signals Pre- and Post-Ligand Perception by a Toggle-Switch Mechanism of ERECTA” (bioRxiv, 2024)", "molecules": {"B1": {"name": "GST-PUB30 (plant U-box E3 ligase PUB30) (enzyme)", "chain": "MPMFQPLKRDGLIGFEGGGDGQVLDLDTAVKDGVLGGVNGGGVGVVDEKLDLKKMIKELDLQDIPSVFICPISLEPMQDPVTLCTGQTYERLNIHKWFNLGHLTCPTTMQELWDDTVTPNKTLHHLIYTWFSQKYVLMKKRSEDVQGRAIEILGTLKKAKGQARVHALSELKQIVIAHLMARKTVVEEGGVSVISSLLGPFTSHAVGSEVVAILVSLDLDSDSKSGLMQPAKVSLIVDMLNDGSNETKINCARLIRGLVEEKGFRAELVSSHSLLVGLMRLVKDKRHRNGVSPALRLLKPISVHKQVRSLMVSIGAVPQLVDILPSLDPECLELALFVLDALCTDVEGRVAVKDSANTIPYTVRVLMRVSENCTNYALSILWSVCKLAPEECSPLAVEVGLAAKLLLVIQSGCDAALKQRSAELLKLCSLHYSDTMFISKCKLTRTIQ"}, "B2": {"name": "MBP-fused full-length ER cytoplasmic domain (MBP-ER_CD) (domain or fragment, Arabidopsis, UniProt Q42371 602-976, looked up)", "chain": "CRPHNPPPFLDGSLDKPVTYSTPKLVILHMNMALHVYEDIMRMTENLSEKYIIGHGASSTVYKCVLKNCKPVAIKRLYSHNPQSMKQFETELEMLSSIKHRNLVSLQAYSLSHLGSLLFYDYLENGSLWDLLHGPTKKKTLDWDTRLKIAYGAAQGLAYLHHDCSPRIIHRDVKSSNILLDKDLEARLTDFGIAKSLCVSKSHTSTYVMGTIGYIDPEYARTSRLTEKSDVYSYGIVLLELLTRRKAVDDESNLHHLIMSKTGNNEVMEMADPDITSTCKDLGVVKKVFQLALLCTKRQPNDRPTMHQVTRVLGSFMLSEQPPAATDTSATLAGSCYVDEYANLKTPHSVNCSSMSASDAQLFLRFGQVISQNSE", "notes": "ERECTA (ER) LRR receptor kinase, Arabidopsis; full-length cytoplasmic domain (juxtamembrane domain, kinase domain, C-terminal tail); source: expressed and purified (recombinantly purified)"}, "B3": {"name": "MBP-ER_CD_(T/S8E), phosphomimetic version (domain or fragment, Arabidopsis, UniProt Q42371 602-976, looked up)", "chain": "CRPHNPPPFLDGSLDKPVTYSTPKLVILHMNMALHVYEDIMRMTENLSEKYIIGHGASSTVYKCVLKNCKPVAIKRLYSHNPQSMKQFETELEMLSSIKHRNLVSLQAYSLSHLGSLLFYDYLENGSLWDLLHGPTKKKTLDWDTRLKIAYGAAQGLAYLHHDCSPRIIHRDVKSSNILLDKDLEARLTDFGIAKSLCVSKSHTSTYVMGTIGYIDPEYARTSRLTEKSDVYSYGIVLLELLTRRKAVDDESNLHHLIMSKTGNNEVMEMADPDITSTCKDLGVVKKVFQLALLCTKRQPNDRPTMHQVTRVLGSFMLSEQPPAATDTSATLAGSCYVDEYANLKEPHEVNCEEMEAEDAQLFLRFGQVIEQNEE", "notes": "ERECTA (ER), Arabidopsis; source: recombinantly purified"}, "B4": {"name": "GST-BKI1 (BRI1 KINASE INHIBITOR 1) (natural protein, Arabidopsis, UniProt Q9FMZ0 1-337, looked up)", "chain": "METNLQQVKNSSQTFSEKQNPKQEASPSPISSTCSSPSHDFSFTISLQPLSSSSKHISPTLRSPSKTTSSYQQTDPFAVDLSPADEIFFHGHLLPLHLLSHLPVSPRTSTGSYNDGFTLPVKDILPDQPTNNNNNTENAITNISTEAKDDNTEDKAEGEIRVKTKPIKSFSLFGLSKWRKGFESNEREQEQQQQKIKKPMSLDLSHAVKKYIRMLFQKRGNGTQFWNRRQTSSYSFSSSLMGPNGNSKTMINGSYNKRDLIRGRRGELFSAPASMRTSPTNSGHLRVSTAGLSSSSGSTSSSSSDSTMEELQAAIQAAIAHCKNSSAVDRDDKVKDS", "notes": "source: recombinantly purified"}}, "key": {"[1]": {"target": "GST-BKI1 (BRI1 KINASE INHIBITOR 1) (Arabidopsis) (UniProt Q9FMZ0)", "assay": "BLI; recombinantly purified GST-BKI1 or GST-PUB30 and MBP-ER_CD variants at seven concentrations (156.25, 312.5, 625, 1,250, 2,500, 5,000 and 10,000 nM); representative of three independent experiments"}, "[2]": {"target": "T1, GST-PUB30 (plant U-box E3 ligase PUB30) (Arabidopsis, UniProt Q058P4 1-448)", "T1 construct": "U-box E3 ubiquitin ligase PUB30, Arabidopsis; source: recombinantly purified", "T1 sequence (looked up)": "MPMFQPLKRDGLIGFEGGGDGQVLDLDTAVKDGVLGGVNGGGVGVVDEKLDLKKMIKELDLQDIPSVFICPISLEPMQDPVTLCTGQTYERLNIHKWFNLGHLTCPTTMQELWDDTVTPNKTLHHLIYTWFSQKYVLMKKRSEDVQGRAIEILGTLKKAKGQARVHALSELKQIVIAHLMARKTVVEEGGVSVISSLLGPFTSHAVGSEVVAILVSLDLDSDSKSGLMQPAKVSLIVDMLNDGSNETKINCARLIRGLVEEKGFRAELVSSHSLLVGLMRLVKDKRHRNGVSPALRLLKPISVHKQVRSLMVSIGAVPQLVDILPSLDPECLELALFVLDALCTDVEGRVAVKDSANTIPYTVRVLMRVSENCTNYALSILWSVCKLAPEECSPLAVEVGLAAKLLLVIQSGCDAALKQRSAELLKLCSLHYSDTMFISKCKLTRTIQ", "assay": "BLI; recombinantly purified GST-BKI1 or GST-PUB30 and MBP-ER_CD variants at seven concentrations (156.25, 312.5, 625, 1,250, 2,500, 5,000 and 10,000 nM); representative of three independent experiments"}, "[3]": {"target": "T2, MBP-ER_CD_(T/S8E), phosphomimetic version (Arabidopsis, UniProt Q42371 602-976, Thr947 (T/S8E) | Ser950 (T/S8E) | Ser954 (T/S8E) | Ser955 (T/S8E) | Ser957 …)", "T2 sequence": "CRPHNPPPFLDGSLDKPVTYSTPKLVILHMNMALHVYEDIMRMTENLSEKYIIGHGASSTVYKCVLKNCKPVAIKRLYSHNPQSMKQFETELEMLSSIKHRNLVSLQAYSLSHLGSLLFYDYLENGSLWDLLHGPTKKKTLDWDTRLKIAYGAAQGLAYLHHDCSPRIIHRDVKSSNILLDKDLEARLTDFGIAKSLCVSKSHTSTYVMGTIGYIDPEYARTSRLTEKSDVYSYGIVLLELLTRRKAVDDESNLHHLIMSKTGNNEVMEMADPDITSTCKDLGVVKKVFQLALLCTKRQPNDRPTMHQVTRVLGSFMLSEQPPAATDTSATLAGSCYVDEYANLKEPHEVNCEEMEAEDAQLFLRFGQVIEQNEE", "assay": "BLI"}, "[4]": {"target": "T3, MBP-ER_CD_(T/S8A), phosphonull version (Arabidopsis, UniProt Q42371 602-976, Thr947 (T/S8A) | Ser950 (T/S8A) | Ser954 (T/S8A) | Ser955 (T/S8A) | Ser957 …)", "T3 sequence": "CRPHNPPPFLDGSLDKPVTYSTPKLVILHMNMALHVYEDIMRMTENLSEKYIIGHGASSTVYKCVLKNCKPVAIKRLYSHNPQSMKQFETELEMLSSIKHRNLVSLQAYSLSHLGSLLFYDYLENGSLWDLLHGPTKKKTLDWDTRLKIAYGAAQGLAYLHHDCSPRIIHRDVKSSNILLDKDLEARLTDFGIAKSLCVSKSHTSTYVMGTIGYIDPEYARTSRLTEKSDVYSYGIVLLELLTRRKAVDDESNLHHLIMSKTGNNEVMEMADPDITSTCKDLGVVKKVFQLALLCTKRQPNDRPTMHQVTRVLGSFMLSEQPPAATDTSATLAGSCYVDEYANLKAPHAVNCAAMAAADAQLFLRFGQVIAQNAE", "assay": "BLI"}, "[5]": {"target": "B2", "assay": "BLI; recombinantly purified GST-BKI1 or GST-PUB30 and MBP-ER_CD variants at seven concentrations (156.25, 312.5, 625, 1,250, 2,500, 5,000 and 10,000 nM); representative of three independent experiments", "conditions": "both partners purified"}, "[6]": {"target": "T4, MBP-ER_CD_(T/S8A), phosphonull version (Arabidopsis, UniProt Q42371 602-976, Thr947 (T/S8A) | Ser950 (T/S8A) | Ser954 (T/S8A) | Ser955 (T/S8A) | Ser957 …)", "T4 construct": "ERECTA (ER), Arabidopsis; The eight sites: six detected (Thr947, Ser950, Ser954, Ser955, Ser957, Ser972); source: recombinantly purified", "T4 sequence (looked up)": "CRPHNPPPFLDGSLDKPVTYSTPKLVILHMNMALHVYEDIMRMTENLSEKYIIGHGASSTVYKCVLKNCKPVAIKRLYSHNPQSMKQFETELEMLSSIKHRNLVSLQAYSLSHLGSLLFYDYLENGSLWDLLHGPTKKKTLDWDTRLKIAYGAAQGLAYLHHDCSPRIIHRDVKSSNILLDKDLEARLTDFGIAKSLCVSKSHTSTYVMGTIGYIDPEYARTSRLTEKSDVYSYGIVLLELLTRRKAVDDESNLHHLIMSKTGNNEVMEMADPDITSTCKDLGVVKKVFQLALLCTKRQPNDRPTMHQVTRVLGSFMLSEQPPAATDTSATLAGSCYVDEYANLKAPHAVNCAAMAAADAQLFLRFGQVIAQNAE", "assay": "BLI; recombinantly purified GST-BKI1 or GST-PUB30 and MBP-ER_CD variants at seven concentrations (156.25, 312.5, 625, 1,250, 2,500, 5,000 and 10,000 nM); representative of three independent experiments", "conditions": "both partners purified"}}, "note": "Where two headings read alike, the source gives them in different places."}
{"molecule": "MBP-ER_CD_(ΔCTα-Helix) (domain or fragment)", "values": [{"measurement": "Kd", "setting": "[1]", "value": 47.7, "unit": "µM"}, {"measurement": "Kd", "setting": "[2]", "value": 0.805, "unit": "µM"}]}
{"molecule": "B1", "values": [{"measurement": "Kd", "setting": "[3]", "value": 0.194, "unit": "µM"}, {"measurement": "Kd", "setting": "[4]", "value": 9.5, "unit": "µM"}]}
{"molecule": "B2", "values": [{"measurement": "Kd", "setting": "[2]; both partners purified", "value": "0.393 ± 0.048", "unit": "µM"}]}
{"molecule": "B3", "values": [{"measurement": "binding result", "setting": "[2]; both partners purified", "value": "binds"}]}
{"molecule": "B4", "values": [{"measurement": "Kd", "setting": "[5]", "value": "3.7 ± 0.7", "unit": "µM"}, {"measurement": "binding result", "setting": "[6]", "value": "binds"}, {"measurement": "Kd", "setting": "[3]", "value": 18, "unit": "µM"}, {"measurement": "Kd", "setting": "[4]", "value": 3.8, "unit": "µM"}]}
